The record followed here is US20240277831A1.

The target in experiment [1] is RBD-8GS-I53-50A trimeric component (SARS-CoV-2).
The target in experiment [2] is Monomeric SARS-CoV-2 RBD (SARS-CoV-2) (UniProt P0DTC2).
Experiment [3] deals with RBD-16GS-I53-50A trimeric component (SARS-CoV-2).
Experiment [4] has as its target RBD-12GS-I53-50A trimeric component (SARS-CoV-2).

A word on the Kd: it is the equilibrium constant for the complex coming apart. A high value points to weaker binding. A word on the koff: it is a measure of how fast the partners let go of each other. A higher koff goes with fast dissociation. As usually defined, the kon is the second-order rate constant of association.

CR3022 Fab: the Kd in experiment [1] is 57 nM; in experiment [2], 45 nM; in experiment [3] it was 56 nM; in experiment [4], 42 nM. In addition, the koff worked out at 0.01 s⁻¹ in experiment [1], 0.009 s⁻¹ in experiment [2], 0.01 s⁻¹ in experiment [3] and 0.009 s⁻¹ in experiment [4]. Moreover, the kon in experiment [1], in experiment [2], in experiment [3] and in experiment [4] was 200000 M⁻¹ s⁻¹ in each case.
